From patent US20210255205A1, “COMPOSITIONS AND METHODS FOR TREATING METABOLIC DISEASE” (THE REGENTS OF THE UNIVERSITY OF CALIFORNIA, priority 2018, published 2021)

B1: Aster-B: purified recombinant ASTER domain of mouse Aster-B (protein, UniProt Q80TI0 224-560, looked up, fragment)
chain: NELGLTSDDEDYVPPDDDFNTMGYCEEIPIEENEVNDSSSKSSIETKPDASPQLPKKSITNSTLTSTGSSEAPVSFDGLPLEEEVMEGDGSLEKELAIDNIIGEKIEIMAPVTSPSLDFNDNEDIPTELSDSSDTHDEGEVQAFYEDLSGRQYVNEVFNFSVDKLYDLLFTNSPFLRDFMEQRRFSDIIFHPWKKEENGNQSRVILYTITLTNPLAPKTATVRETQTMYKASQESECYVIDAEVLTHDVPYHDYFYTINRYTLTRVARNKSRLRVSTELRYRKQPWGFVKTFIEKNFWSGLEDYFRHLETELTKTESTYLAEIHRQSPKEKASKSSA
modifications: ASTER domain
B2: Aster-A: purified recombinant ASTER domain of mouse Aster-A (protein, UniProt Q8VEF1 261-576, looked up, fragment)
chain: AADHSQEPSPVGSRRGRVTPNLSRASSDADHGAEEDKEEQTDGLDASSSQTVTPVAEPLSSEPTPPDGPTSSLGPLDLLSREELLTDTSNSSSSTGEEGDLAALLPDLSGRLLINSVFHMGAERLQQMLFSDSPFLQGFLQQRKFTDVTLSPWSSDSKCHQRRVLTYTIPISNQLGPKSASVVETQTLFRRGPQAGGCVVDSEVLTQGIPYQDYFYTAHRYCILGLARNKARLRVSSEIRYRKQPWSLVKSLIEKNSWSGIEDYFHHLDRELAKAEKLSLEEGGKDTRGLLSGLRRRKRPLSWRGHRDGPQHPDPD
modifications: ASTER domain
B3: Aster-C: purified recombinant ASTER domain of mouse Aster-C (protein, UniProt Q8CI52 206-528, looked up, fragment)
chain: MEHLLSVEENVQPRSPGRSSVDDAGERDEKFSKAVSFTQESVSRASETEPLDGNSPKRGLGKEDSQSERNVRKSPSLASEKRISRAPSKSLDLNKNEYLSLDKSSTSDSVDEENIPEKDLQGRLYINRVFHISAERMFELLFTSSHFMQRFANSRNIIDVVSTPWTVESGGNQLRTMTYTIVLSNPLTGKYTAATEKQTLYKESREAQFYLVDSEVLTHDVPYHDYFYTLNRYCIVRSAKQRCRLRVSTDLKYRKQPWGLIKSLIEKNSWSSLESYFKKLESDLLMEESVLSQSIEDAGKHSSLRRRRRTLNRTAEPVPKLSS
modifications: ASTER domain

Assay: in vitro cholesterol transfer between heavy and light liposomes
Type: biochemical
Settings: purified recombinant ASTER domain, 15 min under agitation
Protocol: Values are means±SEM. […] Input (Ctrl) served as a control for LXR enrichment. […] Values are means±SEM. […] Results values are means±SD. […] Results values are means±SD. […] Values are means±SEM.
Liposomes were generated by drying lipids in glass tube under liquid nitrogen. Lipid films were then resuspended in 50 mM hepes, 120 mM potassium acetate buffer ±0.75M sucrose where indicated. Lipid suspensions were then vortexed and incubated for 30 minutes at 37° C. (2 mM total lipid concentration). Suspensions were then snap frozen in liquid nitrogen and thawed rapidly at 37° C. five times. Light liposomes were prepared by extruding through 100 nm polycarbonate filters. Heavy liposomes containing sucrose were prepared by extruding through a 400 nm polycarbonate filter, then washing several times in 50 mM hepes, 120 mM potassium acetate buffer with no sucrose. Liposome sizes were confirmed using an N4 Dynamic Light Scattering instrument.
To test the ability of the ASTER domain to transfer cholesterol between membranes, an in vitro assay was optimized with heavy and light liposomes. Purified recombinant ASTER domain was incubated with “heavy” PC/dansyl-PE liposomes and “light” PC/cholesterol/dansyl-PE liposomes under agitation for 15 min. The liposomes were separated by centrifugation, and cholesterol levels were determined. Dansyl-PE intensities of heavy liposomes were used to normalize the cholesterol values.

Molecule | cholesterol transfer to the heavy liposomes
B1 | efficiently facilitated cholesterol transfer
B2 | efficiently facilitated cholesterol transfer
B3 | efficiently facilitated cholesterol transfer
